This note sets out measurements from publication PMC5774825.

The stoichiometry N is a count of units in the complex or per binding partner.

Experiment [1] has as its target Ab-WbjB (UDP-N-acetylglucosamine 4,6-dehydratase, WbjB) of Acinetobacter baumannii D1279779 (Acinetobacter baumannii strain D1279779). In words: SEC; some laboratory samples of Ab-WbjB, presumed by the authors to hold less NADP+; dimer form in solution (example in S1 Fig). A general note: In gel filtration, larger molecules generally elute earlier.
Experiment [2] shares this target. In words: SEC; Superdex 200 10/300 GL, Buffer A (50 mM HEPES pH 7.5, 200 mM NaCl, 5% v/v glycerol), 0.5 mL/min; hexamer.
Experiment [3] shares this target. In words: crystal structure; Se-Met Ab-WbjB, space group P212121, six chains in the asymmetric unit, NADP+ bound to each chain, 2.65 Å.

With “Ab-WbjB (UDP-N-acetylglucosamine 4,6-dehydratase, WbjB) of Acinetobacter baumannii D1279779 (enzyme)”, the stoichiometry N turned out to be 2 in experiment [1], 6 in experiment [2] and 6 in experiment [3].
